Patent US20250154231A1
Read-outs that look alike come from different tables or passages of the source.

Assays:
Experiment in all cases: cell-based or functional assay
[1] = target: SARS-CoV-2 spike (S) protein, Omicron BA.2.75 (SARS-CoV-2) (UniProt P0DTC2)
[2] = target: SARS-CoV-2 spike (S) protein, Omicron BA.4.6 (SARS-CoV-2) (UniProt P0DTC2)
[3] = target: SARS-CoV-2 spike (S) protein, Omicron BA.4/5 (SARS-CoV-2) (UniProt P0DTC2)
[4] = target: SARS-CoV-2 spike (S) protein, Omicron BJ.1 (SARS-CoV-2) (UniProt P0DTC2)
[5] = target: SARS-CoV-2 spike (S) protein, Omicron BA.2.3.20 (SARS-CoV-2) (UniProt P0DTC2)
[6] = target: SARS-CoV-2 spike (S) protein, Victoria strain (SARS-CoV-2) (UniProt P0DTC2)
[7] = target: SARS-CoV-2 spike (S) protein, Omicron BA.2.75.2 (SARS-CoV-2) (UniProt P0DTC2)
[8] = target: SARS-CoV-2 spike (S) protein, Omicron BA.2 (SARS-CoV-2) (UniProt P0DTC2)
[9] = target: SARS-CoV-2 Omicron BA.2 spike (S) protein, pseudovirus construct (SARS-CoV-2) (UniProt P0DTC2)
[10] = target: SARS-CoV-2 spike (S) protein, Omicron BA.2.75 (SARS-CoV-2) (UniProt P0DTC2); remark: listed apart in the source
[11] = target: SARS-CoV-2 Gamma (P.1) spike (S) protein (SARS-CoV-2) (UniProt P0DTC2)
[12] = target: SARS-CoV-2 Gamma spike (S) protein (SARS-CoV-2) (UniProt P0DTC2)
[13] = target: SARS-CoV-2 spike (S) protein, Omicron BA.3 (SARS-CoV-2) (UniProt P0DTC2)
[14] = target: SARS-CoV-2 spike (S) protein, Omicron BA.1 (SARS-CoV-2) (UniProt P0DTC2)
[15] = target: SARS-CoV-2 spike (S) protein, Omicron BA.4/5 (SARS-CoV-2) (UniProt P0DTC2); remark: listed apart in the source
[16] = target: SARS-CoV-2 Omicron (BA.1) spike (S) protein, live virus isolate (SARS-CoV-2) (UniProt P0DTC2)
[17] = target: SARS-CoV-2 Victoria spike (S) protein (SARS-CoV-2) (UniProt P0DTC2)
[18] = target: SARS-CoV-2 Beta (B.1.351) spike (S) protein (SARS-CoV-2) (UniProt P0DTC2)
[19] = target: SARS-CoV-2 Omicron BA.1.1 spike (S) protein (SARS-CoV-2) (UniProt P0DTC2)
[20] = target: SARS-CoV-2 Omicron BA.3 spike (S) protein, pseudovirus construct (SARS-CoV-2) (UniProt P0DTC2)
[21] = target: SARS-CoV-2 Alpha (B.1.1.7) spike (S) protein (SARS-CoV-2) (UniProt P0DTC2)
[22] = target: SARS-CoV-2 Omicron BA.1 spike (S) protein of the pseudovirus (SARS-CoV-2) (UniProt P0DTC2)
[23] = target: SARS-CoV-2 Omicron BA.1 spike (S) protein, pseudovirus construct (SARS-CoV-2) (UniProt P0DTC2)
[24] = target: SARS-CoV-2 Omicron BA.1.1 spike (S) protein, pseudovirus construct (SARS-CoV-2) (UniProt P0DTC2)
[25] = target: SARS-CoV-2 Omicron BA.2 spike (S) protein (SARS-CoV-2) (UniProt P0DTC2)
[26] = target: SARS-CoV-2 spike (S) protein, Victoria strain (SARS-CoV-2) (UniProt P0DTC2); remark: listed apart in the source
[27] = target: SARS-CoV-2 Omicron BA.3 spike (S) protein (SARS-CoV-2) (UniProt P0DTC2)
[28] = target: SARS-CoV-2 Omicron BA.4/5 spike (S) protein (SARS-CoV-2) (UniProt P0DTC2)
[29] = target: SARS-CoV-2 Alpha spike (S) protein (SARS-CoV-2) (UniProt P0DTC2)
[30] = target: SARS-CoV-2 spike (S) protein, Omicron BA.2 (SARS-CoV-2) (UniProt P0DTC2); remark: listed apart in the source
[31] = target: SARS-CoV-2 Omicron BA.1 spike (S) protein of the live isolate (SARS-CoV-2) (UniProt P0DTC2)
[32] = target: SARS-CoV-2 spike (S) protein, Omicron BA.1.1 (SARS-CoV-2) (UniProt P0DTC2)
[33] = target: SARS-CoV-2 Delta spike (S) protein (SARS-CoV-2) (UniProt P0DTC2)
[34] = target: SARS-CoV-2 Beta spike (S) protein (SARS-CoV-2) (UniProt P0DTC2)
[35] = target: SARS-CoV-2 spike (S) protein, Omicron BA.2.75 (SARS-CoV-2) (UniProt P0DTC2); remark: listed apart in the source
[36] = target: SARS-CoV-2 spike (S) protein, Omicron BA.2 (SARS-CoV-2) (UniProt P0DTC2); remark: listed apart in the source

Omi-12 (antibody), sequence (VH): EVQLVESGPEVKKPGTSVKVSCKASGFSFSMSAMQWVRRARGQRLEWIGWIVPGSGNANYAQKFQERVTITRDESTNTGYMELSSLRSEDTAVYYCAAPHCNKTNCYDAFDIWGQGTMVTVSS
Omi-12 (antibody), sequence (VL): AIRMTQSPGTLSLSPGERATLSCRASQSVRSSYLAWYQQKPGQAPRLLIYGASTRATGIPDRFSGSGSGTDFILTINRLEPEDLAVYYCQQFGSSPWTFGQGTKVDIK
Omi-18 (antibody), sequence (VH): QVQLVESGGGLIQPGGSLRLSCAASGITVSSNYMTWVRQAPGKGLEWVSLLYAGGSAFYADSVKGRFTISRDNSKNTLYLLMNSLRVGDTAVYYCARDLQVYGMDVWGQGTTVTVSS
Omi-18 (antibody), sequence (VL): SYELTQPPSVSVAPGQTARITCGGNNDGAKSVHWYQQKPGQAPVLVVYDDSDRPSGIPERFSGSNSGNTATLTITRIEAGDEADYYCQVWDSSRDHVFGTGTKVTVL

Question: Which IC50, pseudoviral neutralization [1] does the source give for Omi-12 (antibody) here?
Answer: 3 ng/mL

Question: What about the IC50, pseudoviral neutralization [2] of the same substance?
Answer: 74 ng/mL

Question: What about the IC50, pseudoviral neutralization [3] of the same substance?
Answer: 429 ng/mL

Question: And the IC50, pseudoviral neutralization [4]?
Answer: 4 ng/mL

Question: And the IC50, pseudoviral neutralization [5]?
Answer: 8 ng/mL

Question: And the IC50, pseudoviral neutralization [6]?
Answer: 6 ng/mL

Question: What about the IC50, pseudoviral neutralization [7] of the same substance?
Answer: > 10000 ng/mL

Question: What about the IC50, pseudoviral neutralization [8] of the same substance?
Answer: 3 ng/mL

Question: What about the Pseudovirus - IC50 [9] of the same substance?
Answer: 3 ng/mL

Question: And the pseudovirus neutralisation IC50 [10]?
Answer: 3 ng/mL

Question: And the Authentic virus-IC50 [11]?
Answer: 3 ng/mL

Question: And the IC50, authentic virus neutralization [12]?
Answer: 3 ng/mL

Question: And the pseudovirus neutralisation IC50 [13]?
Answer: 6 ng/mL

Question: What about the pseudovirus neutralisation IC50 [14] of the same substance?
Answer: 2 ng/mL

Question: And the pseudovirus neutralisation IC50 [15]?
Answer: 429 ng/mL

Question: What about the Authentic virus-IC50 [16] of the same substance?
Answer: 4 ng/mL

Question: What about the Authentic virus-IC50 [17] of the same substance?
Answer: 5 ng/mL

Question: And the IC50, authentic virus neutralization [17]?
Answer: 5 ng/mL

Question: What about the IC50, pseudovirus neutralization [17] of the same substance?
Answer: 6 ng/mL

Question: And the Pseudovirus - IC50 [17]?
Answer: 6 ng/mL

Question: What about the Authentic virus-IC50 [18] of the same substance?
Answer: 6 ng/mL

Question: And the IC50, authentic virus neutralization [19]?
Answer: 9 ng/mL

Question: And the IC50, pseudovirus neutralization [19]?
Answer: 2 ng/mL

Question: And the Pseudovirus - IC50 [20]?
Answer: 6 ng/mL

Question: What about the Authentic virus-IC50 [21] of the same substance?
Answer: 3 ng/mL

Question: What about the IC50, pseudovirus neutralization [22] of the same substance?
Answer: 2 ng/mL

Question: And the Pseudovirus - IC50 [23]?
Answer: 2 ng/mL

Question: What about the Pseudovirus - IC50 [24] of the same substance?
Answer: 2 ng/mL

Question: And the IC50, authentic virus neutralization [25]?
Answer: 10 ng/mL

Question: And the IC50, pseudovirus neutralization [25]?
Answer: 3 ng/mL

Question: What about the pseudovirus neutralisation IC50 [26] of the same substance?
Answer: 6 ng/mL

Question: And the IC50, pseudovirus neutralization [27]?
Answer: 6 ng/mL

Question: What about the IC50, pseudovirus neutralization [28] of the same substance?
Answer: 429 ng/mL

Question: And the IC50, authentic virus neutralization [29]?
Answer: 3 ng/mL

Question: What about the pseudovirus neutralisation IC50 [30] of the same substance?
Answer: 3 ng/mL

Question: And the IC50, authentic virus neutralization [31]?
Answer: 4 ng/mL

Question: What about the pseudovirus neutralisation IC50 [32] of the same substance?
Answer: 2 ng/mL

Question: And the Authentic virus-IC50 [33]?
Answer: 3 ng/mL

Question: And the IC50, authentic virus neutralization [33]?
Answer: 3 ng/mL

Question: What about the IC50, authentic virus neutralization [34] of the same substance?
Answer: 6 ng/mL

Question: And the pseudovirus neutralisation IC50 [35]?
Answer: 3 ng/mL

Question: What about the pseudovirus neutralisation IC50 [36] of the same substance?
Answer: 3 ng/mL

Question: What does the source list for Omi-18 (antibody)?
Answer: IC50, pseudoviral neutralization [1]: 35 ng/mL; IC50, pseudoviral neutralization [2]: 6 ng/mL; IC50, pseudoviral neutralization [3]: 5 ng/mL; IC50, pseudoviral neutralization [4]: 5 ng/mL; IC50, pseudoviral neutralization [5]: 11 ng/mL; IC50, pseudoviral neutralization [6]: 8 ng/mL; IC50, pseudoviral neutralization [7]: 4800 ng/mL; IC50, pseudoviral neutralization [8]: 5 ng/mL; Pseudovirus - IC50 [9]: 5 ng/mL; pseudovirus neutralisation IC50 [10]: 35 ng/mL; Authentic virus-IC50 [11]: 16 ng/mL; IC50, authentic virus neutralization [12]: 16 ng/mL; pseudovirus neutralisation IC50 [13]: 6 ng/mL; pseudovirus neutralisation IC50 [14]: 2 ng/mL; pseudovirus neutralisation IC50 [15]: 5 ng/mL; Authentic virus-IC50 [16]: 6 ng/mL; Authentic virus-IC50 [17]: 41 ng/mL; IC50, authentic virus neutralization [17]: 41 ng/mL; IC50, pseudovirus neutralization [17]: 8 ng/mL; Pseudovirus - IC50 [17]: 8 ng/mL; Authentic virus-IC50 [18]: 18 ng/mL; IC50, authentic virus neutralization [19]: 6 ng/mL; IC50, pseudovirus neutralization [19]: 2 ng/mL; Pseudovirus - IC50 [20]: 6 ng/mL; Authentic virus-IC50 [21]: 38 ng/mL; IC50, pseudovirus neutralization [22]: 2 ng/mL; Pseudovirus - IC50 [23]: 2 ng/mL; Pseudovirus - IC50 [24]: 2 ng/mL; IC50, authentic virus neutralization [25]: 7 ng/mL; IC50, pseudovirus neutralization [25]: 5 ng/mL; pseudovirus neutralisation IC50 [26]: 8 ng/mL; IC50, pseudovirus neutralization [27]: 6 ng/mL; IC50, pseudovirus neutralization [28]: 5 ng/mL; IC50, authentic virus neutralization [29]: 38 ng/mL; pseudovirus neutralisation IC50 [30]: 5 ng/mL; IC50, authentic virus neutralization [31]: 6 ng/mL; pseudovirus neutralisation IC50 [32]: 2 ng/mL; Authentic virus-IC50 [33]: 25 ng/mL; IC50, authentic virus neutralization [33]: 25 ng/mL; IC50, authentic virus neutralization [34]: 18 ng/mL; pseudovirus neutralisation IC50 [35]: 35 ng/mL; pseudovirus neutralisation IC50 [36]: 5 ng/mL
